Assay results reported in patent publication US20110229406A1 (U3 PHARMA, published 2011).
Residue numbers refer to the chain shown, from its start.

B1: U1-59 (antibody, human IgG1, V domains shown)
VH: QVQLQQWGAGLLKPSETLSLTCAVYGGSFSGYYWSWIRQPPGKGLEWIGEINHSGSTNYNPSLKSRVTISVETSKNQFSLKLSSVTAADTAVYYCARDKWTWYFDLWGRGTLVTVSS
VL: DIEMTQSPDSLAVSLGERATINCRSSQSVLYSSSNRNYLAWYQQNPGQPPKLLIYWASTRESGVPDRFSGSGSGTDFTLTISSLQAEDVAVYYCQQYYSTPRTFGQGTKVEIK
notes: human IgG1 (gamma 1 constant) with human kappa constant region; also called mAb U1-59; IgG1 mAb consisting of the VH4-34 and the B3 kappa chain
B2: U1-49 (antibody, human IgG1, V domains shown)
VH: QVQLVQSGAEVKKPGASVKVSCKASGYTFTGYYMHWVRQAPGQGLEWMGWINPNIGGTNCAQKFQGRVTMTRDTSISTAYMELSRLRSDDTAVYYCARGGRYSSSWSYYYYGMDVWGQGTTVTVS
VL: DILMTQTPLSLSVTPGQPASISCKSSQSLLLSDGGTYLYWYLQKPGQPPQLLIYEVSNRFSGVPDRFSGSGSGTDFTLKISRVEAEDVGVYYCMQSMQLPITFGQGTRLEIK
notes: also called human IgG1 HER-3 mAb, U1-49
B3: U1-53 (antibody, V domains shown)
VH: EVQLVESGGGLVQPGGSLRLSCAASGFTFSIYSMNWVRQAPGKGLEWVSYISSSSSTIYYADSVKGRFTISRDNAKNSLYLQMNSLRDEDTAVYYCARDRGDFDAFDIWGQGTMVTVSS
VL: DIQMTQSPSSLSASVGDRVTITCQASQDITNYLNWYQQKPGKAPKLLIYDASNLETGVPSRFSGSGSGTDFTFTISSLQPEDIATYNCQQCENFPITFGQGTRLEIK
notes: also called mAb U1-53
B4: U1-51 (antibody, V domains shown)
VH: QVQLQESGPGLVKPSETLSLTCTVSGGSISSYYWSWIRQPPGKGLEWIGYIYYSGSTNYNPSLKSRVTISVDTSKHQFSLKLSSVTAADTAVYYCARDSSYYDSSGYYLYYYAMDVWGQGTTVTVS
VL: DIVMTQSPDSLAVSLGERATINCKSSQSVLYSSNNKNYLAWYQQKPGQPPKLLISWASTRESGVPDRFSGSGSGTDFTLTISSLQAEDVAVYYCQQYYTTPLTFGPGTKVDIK
B5: U1-47 (antibody, V domains shown)
VH: QVQLQQSGPGLVKPSQTLSLTCAISGDSVSSNSAAWNWIRQSPSRGLEWLGRTYYRSKWYNDYAVSVKSRITINPDTSKNQFSLQLNSVTPEDTAVYYCARDYYGSGSFYYYYGMDVWGQGTTVTVS
VL: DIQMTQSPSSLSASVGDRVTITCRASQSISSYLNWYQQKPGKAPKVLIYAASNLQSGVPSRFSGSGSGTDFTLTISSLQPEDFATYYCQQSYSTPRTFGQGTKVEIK
B6: U1-24 (antibody, V domains shown)
VH: QVQLQESGPGLVKPSQTLSLTCTVSGGSISSGDYYWSWIRQHPGKGLEWIGYIYYSGSTYYNPSLKSRVTISVDTSKNQFSLKLSSVTAADTAVYYCARADYDFWNGYFDYWGQGTLVTVSS
VL: DIQMTQSPSSLSASVGDRVTITCRASQGIRNDLGWYQQKPGKAPKRLIYAASSLQSGVPSRFSGSGSGTEFTLTISSLQPEDFATYYCLQHNNYPWTFGQGTKVEIK
B7: U1-7 (antibody, V domains shown)
VH: B6 VH with N106S
VL: B6 VL with I2F, G28D, Q37R, N93S
B8: U1-62 (antibody)
chain 1: EVQLVQSGAEVKKPGESLKISCKGSGYSFTSYWIGWVRQMPGKGLEWMGIIYPGDSDTRYSPSFQGQVTMSADKSISTAYLQLSSHEGLGHRHVLLCETDGWKLRTSRVIETSWGQGTTVTVS
chain 2: not shown
B9: U1-58 (antibody, V domains shown)
VH: QVQLVESGGGVVQPGRSLRLSCAASGFTFSSYGMHWVRQAPGKGLEWVAVIWYDGSNKYYADSVKGRFTISRDNSKNTLYLQMNSLRAEDTAVYYCARAARLDYYYGMDVWGQGTTVTVSS
VL: DIQMTQSPSSLSASVGDRVSITCRASQSINSYLNWFQQKPGKAPQLLIFGASGLQSGVPSRFSGSGSGTDFTLTINSLQPEDFATYYCQQSYSSPLTFGQGTRLEIK
B10: U1-43 (antibody, V domains shown)
VH: QVQLQESGPGLVKPSQTLSLTCTVSGGSISSGGYYWSWIRQHPGKGLEWIGYIYYSGSTYYNPSLRSRVTISVDTSKNQFSLKLSSVTAADTAVYYCARDREREWDDYGDPQGMDVWGQGTTVTVS
VL: DIQMTQSPSSLSASVGDRVTITCRASQSISSYLHWYQQKPGKAPKLLIHAASSLQSGVPSRFSGSGSGTDFTLTISSLQPEDFATYYCQQSYSNPLTFGGGTKVEIQ
B11: U1-61 (antibody, V domains shown)
VH: QVQLQESGPGLVKPSQTLSLTCTVSGVSISSGGYYWSWIRQHPGMGLEWIGYIYYSGSTYYNPSLKSRVTISEDTSKNQFSLKLSSVTAADTAVYYCARDSESEYSSSSNYGMDVWGQGTTVTVS
VL: B10 VL with V19I, S28T, H34N, H49Y, S56G, G66V, I75V, Q107K
B12: U1-44 (antibody, V domains shown)
VH: EVQLVQSGAEVKKPGESLKISCKGSGYSFTSYWIGWVRQMPGKGLEWMGIIWPGDSDTIYSPSFQGQVTISADKSISTAYLQWSSLKASDTAMYYCARHENYGDYNYWGQGTLVTVSS
VL: B10 VL with S30R, H34N, K42N, H49Y, T85L, Y92I, N94S, Q107K
B13: U1-39 (antibody, V domains shown)
VH: EVQLVESGGGLIQPGGSLRLSCAASGFTVSSNYMSWVRQAPGKGLDWVSVIYSGGSTYYADSVKGRFTISRDNSKNTLYLQMNSLRAEDTAVYYCARGQWLDVWGQGTTVTVSS
VL: DIVMTQSPLSLPVTPGEPASISCRSSQSLLHSNGYNYLDWYLQRPGQSPQLLFYLGFHRASGVPDRFSGSGSGTDFTLKISRVEAEDVGVYYCRQALQTPLTFGGGTKVEIK
B14: U1-41 (antibody, V domains shown)
VH: QVQLQESGPGLVKPSQTLSLTCTVSGGSISSGGYYWSWIRQHPGKGLEWIGYIYYSGSTYYNPSLKSRVTISVDTSKNQFSLKLSSVTAADTAVYFCARDRELEGYSNYYGVDVWGQGTTVTVS
VL: DIQMTQSPSSLSASVGDRVTITCRASQAISNYLNWYQQKPGKAPKLLIYAASSLQSGVPSRFSGSGSGTDFTLTISSLQPEDFATYYCQQNNSLPITFGQGTRLEIK
B15: U1-55.1 (antibody, V domains shown)
VH: QVQLQESGPGLVKPSETLSLTCTVSGGSVSSGGYYWNWIRQPPGKGLEWIGYINYSGSTNYNPSLKSRVTISVDTSKNQFSLKLSSVTAADTAVYYCARDRELELYYYYYGMDVWGQGTTVTVS
VL: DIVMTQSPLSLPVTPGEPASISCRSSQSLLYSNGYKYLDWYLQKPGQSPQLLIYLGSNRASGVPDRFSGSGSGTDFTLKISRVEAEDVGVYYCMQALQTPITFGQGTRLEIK

biological target: T1, rat HER-3 ECD (V5-His fusion protein) (rat, UniProt Q62799 20-643); test: ELISA, column Rat XR (XR = cross-reactive)
T1 construct: extracellular domain; not shown: V5-His tag
T1 sequence (Q62799 20-643): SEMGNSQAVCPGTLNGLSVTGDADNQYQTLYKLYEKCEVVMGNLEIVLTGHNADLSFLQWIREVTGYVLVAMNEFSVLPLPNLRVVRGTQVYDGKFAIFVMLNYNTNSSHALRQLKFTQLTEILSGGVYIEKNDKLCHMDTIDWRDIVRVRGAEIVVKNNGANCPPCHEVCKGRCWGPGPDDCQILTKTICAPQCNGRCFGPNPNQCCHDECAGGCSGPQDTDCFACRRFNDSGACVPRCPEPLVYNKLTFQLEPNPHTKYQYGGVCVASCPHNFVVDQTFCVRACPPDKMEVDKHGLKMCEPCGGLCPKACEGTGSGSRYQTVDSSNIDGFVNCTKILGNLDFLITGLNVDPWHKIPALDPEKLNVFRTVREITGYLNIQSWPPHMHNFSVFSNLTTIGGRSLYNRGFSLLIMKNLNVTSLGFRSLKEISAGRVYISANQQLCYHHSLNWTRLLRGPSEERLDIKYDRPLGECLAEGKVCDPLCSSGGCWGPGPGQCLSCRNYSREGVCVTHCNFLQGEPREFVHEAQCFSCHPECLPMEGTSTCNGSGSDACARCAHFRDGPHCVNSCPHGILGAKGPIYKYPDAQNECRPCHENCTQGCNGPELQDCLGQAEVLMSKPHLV

B1: binds.
B2: no binding.
B3: no binding.

biological target: T2, HER-3 (human, on cells) (human, UniProt P21860 20-1342); test: indirect FACS Scatchard analysis on cells
T2 construct: whole, on cells; also called ErbB3; HER-3+ cell lines
Experimental: Therefore, 10⁵ cells of interest or SK-Br 3 cells were harvested with 10 mM EDTA in PBS, washed once with FACS buffer (PBS, 3% FCS, 0.4% azide) and seeded on a 96-well round bottom plate. The cells were spun for 3 min at 1000 rpm to remove supernatant and then resuspended with α-HER-3 antibody (3 μg/ml) or with antibody dilutions (100 μl/well) starting with 20 μg/ml human monoclonal antibody in FACS buffer, diluted in 1:2 dilution steps. Cell suspensions were incubated on ice for 1 hr, washed twice with FACS buffer and resuspended with secondary antibody (100 μl/well) donkey-anti-human-PE (Jackson) diluted 1:50 in FACS buffer. The cell suspensions were incubated on ice and in the dark for 30 min, washed twice with FACS buffer and analyzed (FACS, Beckman Coulter). According to the FACS Scatchard analysis, the fluorescence mean was calculated for each measurement. Background staining (=without 1st antibody) was subtracted from each fluorescence mean. Scatchard plot with x-value=fluorescence mean and y-value=fluorescence mean/concentration of mAb (nM) was generated.

Point of comparison: B8, Kd 20.4 nM. Against it:
- B4 — 6.5-fold higher, 132 nM
- B5 — 2.2-fold lower, 9.38 nM
- B6 — 340-fold lower, 0.06 nM
- B7 — 1000-fold lower, 0.02 nM
- B9 — 3.2-fold lower, 6.4 nM
- B1 — 5.5-fold lower, 3.69 nM
- B2 — 20-fold lower, 1 nM
- B10 — 36-fold lower, 0.57 nM
- B11 — 160-fold lower, 0.13 nM
- B12 — 5.1-fold lower, 4 nM
- B3 — 250-fold lower, 0.082 nM
- B13 — 5-fold higher, 102 nM
- B14 — 110-fold lower, 0.18 nM
- B15 — 5.5-fold lower, 3.7 nM

biological target: T3, reduced, denatured HER-3-His tagged purified ECD protein (human, UniProt P21860 20-643); test: dot blot of reduced, denatured HER-3-His ECD
T3 construct: extracellular domain; Same protein as m2, but reduced and denatured (disulfide bonds broken); not shown: His tag

B2: no binding.
B3: no binding.
